This passage reports Kd results from patent US8613927B2, “High affinity human antibodies to human nerve growth factor” (Regeneron Pharmaceuticals, Inc., priority 2007, dated 2013).

In the assay the target is mouse NGF (mNGF) (Mus musculus, UniProt P01139). Briefly: BIACORE binding affinity to mouse NGF. The protocol: Antigen binding affinities of the antibodies for human NGF were determined by surface kinetics using a real-time biosensor surface plasmon resonance assay (BIACORE™). Antibodies were captured on either a goat, anti-human or anti-mouse IgG polyclonal antibody surface created by direct amine coupling of the capture antibody to a BIACORE™ chip. Various concentrations of human NGF were injected over the captured antibody surfaces while the association of the antigen to the antibody and the dissociation of the bound complex were monitored in real time. Kinetic analysis was performed to obtain the equilibrium dissociation constant (KD) and dissociation rate constant, and the latter was used to calculate the antigen/antibody complex dissociation t1/2 (Table 1).
Human NGF (NGF) is highly homologous in amino acid sequence to mouse NGF (mNGF) and rat NGF (rNGF) with about 90% identity. The binding affinities of the antibodies to both mNGF and rNGF were determined as described above.
The binding affinity of selected purified anti-NGF antibodies to mNGF and rNGF were also determined (Table 6).

Sequence of mouse NGF (mNGF) (P01139 122-241): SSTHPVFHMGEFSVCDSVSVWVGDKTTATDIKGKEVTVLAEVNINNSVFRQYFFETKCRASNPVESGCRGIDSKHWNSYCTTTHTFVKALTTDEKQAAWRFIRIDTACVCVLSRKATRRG

A word on the Kd: it is a measure of binding affinity in units of concentration. Low values mean higher affinity, high ones lower affinity. With tanezumab [RN624], the Kd is, setting by setting: (Table 5) 1.4 pM; (Table 6, selected purified antibodies) 1.4 pM.
